Laboratory results taken from article PMC12095048 (Oncogene, 2025).

B1: GST-HIF-1α (aa 81–200) (domain or fragment)
chain: not shown
B2: GST-HIF-1α (aa 400–575) (domain or fragment, UniProt Q16665 400-575, looked up)
chain: LAPAAGDTIISLDFGSNDTETDDQQLEEVPLYNDVMLPSPNEKLQNINLAMSPLPTAETPKPLRSSADPALNQEVALKLEPNPESLELSFTMPQIQDQTPSPSDGSTRQSSPEPNSPSEYCFYVDSDMVNEFKLELVEKLFAEDTEAKNPFSTQDTDLDLEMLAPYIPMDDDFQLR
B3: GST-CHK2 (aa 1–193) (domain or fragment, UniProt O96017 1-193, looked up)
chain: MSRESDVEAQQSHGSSACSQPHGSVTQSQGSSSQSQGISSSSTSTMPNSSQSSHSSSGTLSSLETVSTQELYSIPEDQEPEDQEPEEPTPAPWARLWALQDGFANLECVNDNYWFGRDKSCEYCFDEPLLKRTDKYRTYSKKHFRIFREVGPKNSYIAYIEDHSGNGTFVNTELVGKGKRRPLNNNSEIALSL

Columns and labels:
[1] = target: His-CHK2 (WT), full length (UniProt O96017 1-543); experiment: pull-down
[2] = target: His-HIF-1α (WT), full length (UniProt Q16665 1-826); experiment: pull-down
His-HIF-1α (WT), full length, sequence (Q16665 whole entry): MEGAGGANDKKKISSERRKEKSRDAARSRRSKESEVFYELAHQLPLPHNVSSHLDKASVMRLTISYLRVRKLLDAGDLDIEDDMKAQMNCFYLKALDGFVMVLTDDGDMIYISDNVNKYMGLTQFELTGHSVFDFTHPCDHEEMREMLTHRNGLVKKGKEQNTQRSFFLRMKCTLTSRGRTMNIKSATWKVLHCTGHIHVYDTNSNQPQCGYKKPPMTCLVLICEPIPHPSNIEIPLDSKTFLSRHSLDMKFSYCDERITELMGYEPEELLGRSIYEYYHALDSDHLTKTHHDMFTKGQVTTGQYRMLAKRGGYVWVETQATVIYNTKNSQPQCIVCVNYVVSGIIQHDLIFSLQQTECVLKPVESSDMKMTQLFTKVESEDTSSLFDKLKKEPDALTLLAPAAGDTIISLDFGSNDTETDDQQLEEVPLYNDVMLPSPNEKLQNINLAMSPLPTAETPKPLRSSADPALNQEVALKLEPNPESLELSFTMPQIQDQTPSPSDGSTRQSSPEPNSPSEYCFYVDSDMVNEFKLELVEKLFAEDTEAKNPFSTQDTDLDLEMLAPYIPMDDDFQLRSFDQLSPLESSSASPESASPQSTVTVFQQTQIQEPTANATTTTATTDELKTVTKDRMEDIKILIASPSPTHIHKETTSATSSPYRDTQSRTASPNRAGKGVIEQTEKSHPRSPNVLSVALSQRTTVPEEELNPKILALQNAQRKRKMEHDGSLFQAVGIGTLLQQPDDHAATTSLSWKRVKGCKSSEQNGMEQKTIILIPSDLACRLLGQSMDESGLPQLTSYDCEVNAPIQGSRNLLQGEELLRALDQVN

Row | Binder | binding result [1] | binding result [2]
1 | B1 | binds | 
2 | B2 | binds | 
3 | B3 |  | binds
